Consider 16 molecules from patent US20250270315A1.

Like-named read-outs stand apart in the source and are kept apart here.

Test [1] addresses cyno SIRPα stably expressed on CHOK1 cells (cyno). The test is described as follows: FACS, CHOK1-cyno SIRPα cells. Background: In flow cytometry, cells or beads pass a laser one at a time.
Test [2] addresses human SIRPα v2 expressed on cells (CHOK1 stable line KYinno KC-1720) (human) (UniProt P78324). The test is described as follows: FACS, CHOK1-hSIRPα v2 cells.
Test [3] has as its target Human SIRPα v2 (antigen of the Octet and Biacore affinity measurements) (human) (UniProt P78324). Put plainly: BLI (Octet), 1:1 binding model.
Test [4] concerns the target cyno SIRPα stably expressed on CHOK1 cells (cyno). The test is described as follows: FACS, CHOK1-Cyno SIRPα cells.
In test [5] the target is Human SIRPα v2 (antigen of the Octet and Biacore affinity measurements) (human) (UniProt P78324). Put plainly: SPR (Biacore), 1:1 binding model. For orientation: Surface plasmon resonance follows binding to a sensor surface in real time, without labels.
For test [6], the target named is human SIRPα v2 expressed on cells (CHOK1 stable line KYinno KC-1720) (human) (UniProt P78324). Put plainly: FACS, CHOK1-hSIRPα v2 cells. This is another data set of the same source.
For test [7] the target is unchanged. The test is described as follows: competitive FACS, mFc-CD47 ECD on CHOK1-human SIRPα v2 cells.

B1: 005 (antibody, V domains shown)
VH: EVKLVESGGGLVQPGGSLSLSCAASGFTFTDYYMSWVRQPPGKALEWLGFIKNEANGYTTESSASVKGRFTISRDNSQSILYLQMNALRAEDSATYYCARYDYYGSNYNWYFDAWGTGTTVTVSS
VL: DIVMTQSQKFMSPSVGDRVSITCKASQNVRTAVAWYQQKPGQSPKVLIHLASKRHTGVPDRFTGSGSGTDFTLTISNVQSEDLADYFCLQHWIHPLTFGAGTKLELK
As to B1, the MFI at 10 nM in test [1] came out at 5970 MFI.

B2: 005c (antibody, V domains shown)
VH: EVKLVESGGGLVQPGGSLSLSCAASGFTFTDYYMSWVRQPPGKALEWLGFIKNEANGYTTESSASVKGRFTISRDNSQSILYLQMNALRAEDSATYYCARYDYYGSNYNWYFDAWGTGTTVTVSS
VL: DIVMTQSQKFMSPSVGDRVSITCKASQNVRTAVAWYQQKPGQSPKVLIHLASKRHTGVPDRFTGSGSGTDFTLTISNVQSEDLADYFCLQHWIHPLTFGAGTKLELK
The term EC50 denotes the concentration at which the effect is half-maximal. A lower EC50 goes with greater potency. In test [2], B2 returned an EC50 of 5.47 nM and a TOP MFI of 53300 MFI.

B3: 025 (antibody, V domains shown)
VH: EVQLQQSGAELVKPGASVKLSCTASGFNIKDYYMHWVKQRTEQGLEWIGRIDPEDGETKYAPKFQGKATITADTSSNTAYLQLSSLTSEDTAVYYCDRGLAYWGQGTLVTVSA
VL: QIVLTQSPAIMSASPGEKVTLTCSASSSVSSSYLYWYQQKPGSSPKLWIYSTSNLASGVPARFSGSGSGTSYSLTISSMEAEDAASYFCHQWSSYPYTFGGGTKLEIK
B3 displayed an MFI at 10 nM in test [1] of 8560 MFI.

B4: 015c (antibody, V domains shown)
VH: EVQLQQSGVEVVQPGASVKLSCTASGFNIEAYYMHWVKQRTEQGLEWIGRIDPEDGESKYAPKFQGKATMTADTSSSTAYLQLSSLTSDDTAVYYCVRGSYEYWGQGTTLTVSS
VL: QIVLTQSPAIMSASPGEKVTLTCSASSSVSSSYLYWYQQKPGSSPKLWIYSTSNLASGVPPRFSGSGSGTSYSLTISSMQAEDAASYFCYQWSSYPYTFGGGTKLEIK
Usually Kd stands for the constant that tells how readily two partners part at equilibrium. Higher therefore signals weaker binding. A word on the koff: it is the rate constant with which the complex falls apart. Low readings indicate slow dissociation, high ones fast dissociation. Broadly, the kon is the second-order rate constant of association. High values mean faster complex formation, low ones slower complex formation. As for B4, in test [3], the Kd was 0.937 nM, the koff was 0.00117 s⁻¹ and the kon was determined as 1.24e+06 M⁻¹ s⁻¹. In test [4], this molecule returned a concentration for a half-maximal effect (EC50) of 0.69 nM and a TOP MFI of 29700 MFI. In test [2], this molecule gave an EC50 of 1.58 nM and a TOP MFI of 50100 MFI.

B5: 042 (antibody, V domains shown)
VH: QIQLVQSGPELKKPGETVKISCRASGYTFTTYGMSWVKQAPGKGLRWMGWINTYSGVSTCADDFKGRFAFSLETSATTAYLQIHNLTNEDTATYFCARDPHSYGNSPAWFPYWGQGTLVTVSA
VL: DIVMTQSQKFMSTTIRDRVSITCKASQNVGISVAWYQQKSGQSPKLLIYSASNRYTGVPDRFTGSGSGTDFTLTISNMQSEDLADYFCQQYSSYPLTFGSGTKLAIK
On to B5, for which the MFI at 10 nM in test [1] was found to be 6850 MFI.

B6: 073c (antibody, V domains shown)
VH: QIQLVQSGPELKKPGETVKISCKASGYTFTTYGMSWVKQAPGKGLKWMVWINTYSGVPTYADDFKGRFAFSLETSASTSYLQINNLKNEDTATYFCARDPHYYGSSPAWFVYWGQGTLVTVSA
VL: DIVMTQSQKFMSTTIGDRVSITCEASQIVGIAVAWYQQKPGQSPKLLIYSASNRYTGVPDRFTGSGSGTDFTLTISNMQSEDLANYFCQQYSAYPFTFGSGTKLEVK
In test [4], B6 had an EC50 of 1.76 nM and a TOP MFI of 30700 MFI. For the same molecule, in test [2], the EC50 is 2.12 nM and the TOP MFI is 47300 MFI.

B7: 071 (antibody, V domains shown)
VH: QIQLVQSGPELKKPGETVKISCKASGYTFTTYGMSWVKQAPGKGLKWMVWINTYSGVPTYADDFQGRFAFSLETSASTSYLQINNLRNEDTATYFCARDPHYYGTSPAWFAYWGQGTLVTVSA
VL: DIVMTQSQKFMSTTIGDRVIITCKASQIVGIAVAWYQQKPGQSPKLLIYSASNRFTGVPDRFTGSGSGTDFTLTISNMQSEDLADYFCQQYSTYPFTFGSGTKLEIK
In the case of B7, the MFI at 10 nM in test [1] was found to be 8370 MFI.

B8: 042c (antibody, V domains shown)
VH: QIQLVQSGPELKKPGETVKISCRASGYTFTTYGMSWVKQAPGKGLRWMGWINTYSGVSTCADDFKGRFAFSLETSATTAYLQIHNLTNEDTATYFCARDPHSYGNSPAWFPYWGQGTLVTVSA
VL: DIVMTQSQKFMSTTIRDRVSITCKASQNVGISVAWYQQKSGQSPKLLIYSASNRYTGVPDRFTGSGSGTDFTLTISNMQSEDLADYFCQQYSSYPLTFGSGTKLAIK
In test [3], B8 had a Kd of 6.14 nM, a koff of 0.00378 s⁻¹ and an on-rate (kon) of 616000 M⁻¹ s⁻¹. Moreover, in test [4], the concentration for a half-maximal effect (EC50) worked out at 2.95 nM and the TOP MFI was 32400 MFI. In addition, in test [2], the EC50 is 4.21 nM and the TOP MFI was 54800 MFI.

B9: 071c (antibody, V domains shown)
VH: QIQLVQSGPELKKPGETVKISCKASGYTFTTYGMSWVKQAPGKGLKWMVWINTYSGVPTYADDFQGRFAFSLETSASTSYLQINNLRNEDTATYFCARDPHYYGTSPAWFAYWGQGTLVTVSA
VL: DIVMTQSQKFMSTTIGDRVIITCKASQIVGIAVAWYQQKPGQSPKLLIYSASNRFTGVPDRFTGSGSGTDFTLTISNMQSEDLADYFCQQYSTYPFTFGSGTKLEIK
In test [4], B9 gave a 50% effective concentration (EC50) of 2.64 nM and a TOP MFI of 32300 MFI. For the same molecule, in test [2], the 50% effective concentration (EC50) worked out at 3.31 nM and the TOP MFI turned out to be 46700 MFI.

B10: 059c (antibody, V domains shown)
VH: QVQLQQSGPELVKPGASVKMSCKASGYTFSEYVLSWVKQRTGQGLEWIGEIYPGTITTYYNEKFKGKATLTADKSSNTAYIQLTSLTSEDSAVYFCGRFYDYDGGWFAYWGQGTLLTVSA
VL: ENVLTQSPEKMAVSLGQKVTMTCSASSSVSSSDLHWYQQKSGASPKPLIHGTSNLASGVPARFSGSGSGTSYSLTISSVEAEDAATYYCQQWSGYPWTFGGGTNLEIK
For B10, the EC50 in test [4] is 17.2 nM; in test [2] it was 12 nM. Also, the TOP MFI amounted to 17400 MFI in test [4] and 19600 MFI in test [2].

B11: 059 (antibody, V domains shown)
VH: QVQLQQSGPELVKPGASVKMSCKASGYTFSEYVLSWVKQRTGQGLEWIGEIYPGTITTYYNEKFKGKATLTADKSSNTAYIQLTSLTSEDSAVYFCGRFYDYDGGWFAYWGQGTLLTVSA
VL: ENVLTQSPEKMAVSLGQKVTMTCSASSSVSSSDLHWYQQKSGASPKPLIHGTSNLASGVPARFSGSGSGTSYSLTISSVEAEDAATYYCQQWSGYPWTFGGGTNLEIK
In the case of B11, the MFI at 10 nM in test [1] is 5840 MFI.

B12: hu025.021 (antibody, V domains shown)
VH: EVQLVQSGAEVKKPGATVKISCKVSGFNIKDYYMHWVQQAPGKGLEWIGRIDPEDAETKYAPKFQGRVTITADTSTNTAYMELSSLRSEDTAVYYCDRGLAYWGQGTLVTVSS
VL: EIVLTQSPATLSLSPGERATLSCSASSSVSSSYLYWYQQKPGQAPKLWIYSTSNLASGIPARFSGSGSGTDYTLTISSLEPEDFAVYYCHQWSSYPYTFGQGTKLEIK
In the case of B12, in test [5], the dissociation constant (Kd) was determined as 3.39 nM, the koff came out at 0.0056 s⁻¹ and the kon was determined as 1.65e+06 M⁻¹ s⁻¹. For the same molecule, in test [6], the EC50 came out at 0.87 nM and the TOP MFI came out at 46400 MFI.

B13: hu025.023 (antibody, V domains shown)
VH: EVQLVQSGAEVKKPGATVKISCKVSGFNIKDYYMHWVQQAPGKGLEWIGRIDPEDAETKYAPKFQGRVTITADTSTNTAYMELSSLRSEDTAVYYCDRGLAYWGQGTLVTVSS
VL: EIVLTQSPATLSLSPGERATLSCSASSSVSSSYLYWYQQKPGQAPKLWIYSTSNLASGIPARFSGSGSGTDFTLTISSLEPEDFAVYYCHQWSSYPYTFGQGTKLEIK
In general, IC50 refers to the midpoint of a concentration-inhibition curve. A low value points to inhibition by little substance. Regarding B13, in test [5], the Kd amounted to 2.78 nM, the off-rate (koff) is 0.00492 s⁻¹ and the on-rate (kon) was 1.77e+06 M⁻¹ s⁻¹. In test [6], this molecule came in with a concentration for a half-maximal effect (EC50) of 0.81 nM and a TOP MFI of 45800 MFI. In test [7], this molecule gave a half-inhibitory concentration (IC50) of 0.75 nM and a TOP blocking (%) of 100%.

B14: hu025.060 (antibody, V domains shown)
VH: EVQLVQSGAEVKKPGATVKISCKASGFNIKDYYMHWVQQAPGKGLEWIGRIDPEDAETKYAPKFQGRVTITADTSTNTAYMELSSLRSEDTAVYYCDRGLAYWGQGTLVTVSS
VL: EIVLTQSPATLSLSPGERATLSCSASSSVSSSYLYWYQQKPGQAPKLWIYSTSNLASGIPARFSGSGSGTDFTLTISSLEPEDFAVYYCHQWSSYPYTFGQGTKLEIK
In test [5], B14 returned a Kd of 2.34 nM, a koff of 0.00344 s⁻¹ and an on-rate (kon) of 1.47e+06 M⁻¹ s⁻¹. In addition, in test [6], the EC50 is 0.8 nM and the TOP MFI stood at 48800 MFI. In test [7], the concentration for half-maximal inhibition (IC50) was found to be 0.77 nM and the TOP blocking (%) was determined as 99.8%.

B15: hu025.033 (antibody, V domains shown)
VH: EVQLVQSGAEVKKPGATVKISCKVSGFNIKDYYMHWVQQAPGKGLEWIGRIDPEDAETKYAPKFQGRVTITADTSTDTAYMELSSLRSEDTAVYYCDRGLAYWGQGTLVTVSS
VL: EIVLTQSPATLSLSPGERATLSCSASSSVSSSYLYWYQQKPGQAPKLWIYSTSNLASGIPARFSGSGSGTDYTLTISSLEPEDFAVYYCHQWSSYPYTFGQGTKLEIK
B15: in test [6], the concentration giving a half-maximal response (EC50) is 0.62 nM and the TOP MFI stood at 39800 MFI.

B16: hu025.059 (antibody, V domains shown)
VH: EVQLVQSGAEVKKPGATVKISCKASGFNIKDYYMHWVQQAPGKGLEWIGRIDPEDAETKYAPKFQGRVTITADTSTNTAYMELSSLRSEDTAVYYCDRGLAYWGQGTLVTVSS
VL: EIVLTQSPATLSLSPGERATLSCSASSSVSSSYLYWYQQKPGQAPKLWIYSTSNLASGIPARFSGSGSGTDYTLTISSLEPEDFAVYYCHQWSSYPYTFGQGTKLEIK
Regarding B16, in test [5], the Kd is 2.76 nM, the koff worked out at 0.00392 s⁻¹ and the kon worked out at 1.42e+06 M⁻¹ s⁻¹. In addition, in test [6], the half-maximal effective concentration (EC50) was 0.75 nM and the TOP MFI amounted to 47300 MFI.
